Measurements as given in paper PMC6662825.

Molecular target: Trx-NVL^167–216-(GS)3-eYFP (human) (UniProt O15381)
Test: MST; 50 nM Trx-NVL^167–216-(GS)3-eYFP with a 1:1 dilution series of unlabeled MTR4 KOW; 50 mM Hepes/NaOH pH 7.5, 150 mM NaCl, 5% glycerol, 0.5 mM TCEP; MST power 20%, LED power 20%; triplicates

Chain of Trx-NVL^167–216-(GS)3-eYFP (human) (O15381 167-216): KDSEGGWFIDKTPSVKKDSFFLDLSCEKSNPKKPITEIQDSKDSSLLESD

Kd: 1 µM
B1: MTR4-KOW (domain or fragment)
chain: HKPKYCLPFLQPGRLVKVKNEGDDFGWGVVVNFSKKSNVKPNSGELDPLYVVEVLLRCSKESLKNSATEAAKPAKPDEKGEMQVVPVLVHLLSAISSVRLYIPKDLRPVDNRQSVLKSIQEVQKRFPDGIPLLDPIDDMGIQD
